Results reported in the supplement of paper PMC9112550, “Optimization of the antimicrobial peptide Bac7 by deep mutational scanning” (BMC Biology, 2022).
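Further: peptides expressed intracellularly from a pBAD plasmid library in pooled LB shake-flask culture, induced with 0.3% L-arabinose, DNA abundance read by NGS, three biological replicates, DESeq2 with apeglm shrinkage.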

The sequences below were run on Escherichia coli TOP10 (assay: shrunken log2 fold change of peptide-encoding DNA abundance (4.5 h post-induction vs induction); higher = less antimicrobial activity (less host growth inhibition)). Settings: time post-induction: 4.5 h; library: site-saturation at positions 5, 18, 19, 20.
RRIRWRPPRLPRPRPRPKRRPRP was tested, and the “shrunken log2 fold change” value was 0.0884. For RRIRDRPPRLPRPRPRPMLSPRP, the “shrunken log2 fold change” value was 4.44e-05. In the case of RRIRLRPPRLPRPRPRPAEHPRP, the “shrunken log2 fold change” value is reported as 0.141. RRIRMRPPRLPRPRPRPENNPRP was tested, and the “shrunken log2 fold change” value was 1.53. For RRIRCRPPRLPRPRPRPGYRPRP, the “shrunken log2 fold change” value was -0.682. For RRIRSRPPRLPRPRPRPEMAPRP, the “shrunken log2 fold change” value was 1.22. In the case of RRIRQRPPRLPRPRPRPTGKPRP, the “shrunken log2 fold change” value is reported as -0.00964. With RRIRCRPPRLPRPRPRPIGGPRP the “shrunken log2 fold change” value was -0.17. With RRIRTRPPRLPRPRPRPGHRPRP the “shrunken log2 fold change” value was -0.216. RRIRDRPPRLPRPRPRPEHYPRP was tested, and the “shrunken log2 fold change” value was -0.0548. With RRIRIRPPRLPRPRPRPDNHPRP the “shrunken log2 fold change” value was -0.0565. RRIRDRPPRLPRPRPRPHGYPRP was tested, and the “shrunken log2 fold change” value was 0.0237. In the case of RRIRTRPPRLPRPRPRPGVKPRP, the “shrunken log2 fold change” value is reported as 0.14. In the case of RRIRFRPPRLPRPRPRPDWCPRP, the “shrunken log2 fold change” value is reported as -0.00301. RRIRMRPPRLPRPRPRPFFPPRP was tested, and the “shrunken log2 fold change” value was -1.89e-05. In the case of RRIRDRPPRLPRPRPRPSLKPRP, the “shrunken log2 fold change” value is reported as 0.155. With RRIRQRPPRLPRPRPRPECHPRP the “shrunken log2 fold change” value was 0.268. RRIRERPPRLPRPRPRPKGNPRP was tested, and the “shrunken log2 fold change” value was 0.139. With RRIRCRPPRLPRPRPRPAKNPRP the “shrunken log2 fold change” value was 0.00465. With RRIRTRPPRLPRPRPRPHEQPRP the “shrunken log2 fold change” value was 0.177. For RRIRSRPPRLPRPRPRPDKFPRP, the “shrunken log2 fold change” value was -0.143. RRIRWRPPRLPRPRPRPMSLPRP was tested, and the “shrunken log2 fold change” value was -0.0247. In the case of RRIRRRPPRLPRPRPRPRANPRP, the “shrunken log2 fold change” value is reported as 0.954. For RRIRARPPRLPRPRPRPDAMPRP, the “shrunken log2 fold change” value was 1.02. RRIRPRPPRLPRPRPRPRVFPRP was tested, and the “shrunken log2 fold change” value was 0.607. With RRIRVRPPRLPRPRPRPANLPRP the “shrunken log2 fold change” value was -0.163. For RRIRWRPPRLPRPRPRPMWFPRP, the “shrunken log2 fold change” value was -0.487. In the case of RRIRMRPPRLPRPRPRPWWDPRP, the “shrunken log2 fold change” value is reported as 0.142. RRIRRRPPRLPRPRPRPSDNPRP was tested, and the “shrunken log2 fold change” value was -0.134. In the case of RRIRQRPPRLPRPRPRPEKQPRP, the “shrunken log2 fold change” value is reported as -0.267. In the case of RRIRIRPPRLPRPRPRPTAWPRP, the “shrunken log2 fold change” value is reported as 0.152. For RRIRQRPPRLPRPRPRPFNRPRP, the “shrunken log2 fold change” value was -0.0328. RRIRERPPRLPRPRPRPWTYPRP was tested, and the “shrunken log2 fold change” value was -0.104. RRIRYRPPRLPRPRPRPRPYPRP was tested, and the “shrunken log2 fold change” value was -0.259. With RRIRGRPPRLPRPRPRPMPNPRP the “shrunken log2 fold change” value was -0.0294. With RRIRFRPPRLPRPRPRPRYLPRP the “shrunken log2 fold change” value was -0.0779. With RRIRVRPPRLPRPRPRPNMEPRP the “shrunken log2 fold change” value was -0.151. In the case of RRIRYRPPRLPRPRPRPGVDPRP, the “shrunken log2 fold change” value is reported as -0.0308. With RRIRKRPPRLPRPRPRPIMPPRP the “shrunken log2 fold change” value was 0.099. RRIRLRPPRLPRPRPRPVWWPRP was tested, and the “shrunken log2 fold change” value was 0.88. RRIRWRPPRLPRPRPRPFNVPRP was tested, and the “shrunken log2 fold change” value was -0.114. RRIRRRPPRLPRPRPRPFMCPRP was tested, and the “shrunken log2 fold change” value was 0.0373. In the case of RRIRARPPRLPRPRPRPEGCPRP, the “shrunken log2 fold change” value is reported as 1.31. For RRIRMRPPRLPRPRPRPFGDPRP, the “shrunken log2 fold change” value was 0.0178. For RRIRMRPPRLPRPRPRPDHTPRP, the “shrunken log2 fold change” value was 0.329. In the case of RRIRFRPPRLPRPRPRPQTHPRP, the “shrunken log2 fold change” value is reported as -0.151. With RRIRPRPPRLPRPRPRPCWDPRP the “shrunken log2 fold change” value was -0.0457. RRIRVRPPRLPRPRPRPNPMPRP was tested, and the “shrunken log2 fold change” value was 0.0227. For RRIRKRPPRLPRPRPRPYQCPRP, the “shrunken log2 fold change” value was -0.0062. RRIRQRPPRLPRPRPRPCTWPRP was tested, and the “shrunken log2 fold change” value was -0.464. For RRIRGRPPRLPRPRPRPYLGPRP, the “shrunken log2 fold change” value was 0.167. In the case of RRIRYRPPRLPRPRPRPKHLPRP, the “shrunken log2 fold change” value is reported as -0.155. For RRIRNRPPRLPRPRPRPRMTPRP, the “shrunken log2 fold change” value was 0.259. For RRIRYRPPRLPRPRPRPTQTPRP, the “shrunken log2 fold change” value was 0.0249. With RRIRKRPPRLPRPRPRPQFHPRP the “shrunken log2 fold change” value was 0.119. For RRIRIRPPRLPRPRPRPHAFPRP, the “shrunken log2 fold change” value was -0.0152. With RRIRWRPPRLPRPRPRPGMNPRP the “shrunken log2 fold change” value was -0.0747. With RRIRIRPPRLPRPRPRPLGCPRP the “shrunken log2 fold change” value was -0.0574. RRIRWRPPRLPRPRPRPKIYPRP was tested, and the “shrunken log2 fold change” value was -0.0902. RRIRQRPPRLPRPRPRPFWIPRP was tested, and the “shrunken log2 fold change” value was -0.0587. For RRIRRRPPRLPRPRPRPEDHPRP, the “shrunken log2 fold change” value was 0.122. In the case of RRIRSRPPRLPRPRPRPGECPRP, the “shrunken log2 fold change” value is reported as -0.181. In the case of RRIRSRPPRLPRPRPRPCQGPRP, the “shrunken log2 fold change” value is reported as -0.028. With RRIRDRPPRLPRPRPRPWMQPRP the “shrunken log2 fold change” value was -0.0999. For RRIRDRPPRLPRPRPRPTAYPRP, the “shrunken log2 fold change” value was -0.22. In the case of RRIRIRPPRLPRPRPRPNPKPRP, the “shrunken log2 fold change” value is reported as 0.0309. RRIRPRPPRLPRPRPRPGEFPRP was tested, and the “shrunken log2 fold change” value was 0.318. In the case of RRIRSRPPRLPRPRPRPIESPRP, the “shrunken log2 fold change” value is reported as -0.385. RRIRERPPRLPRPRPRPIQKPRP was tested, and the “shrunken log2 fold change” value was -0.184. With RRIRDRPPRLPRPRPRPTESPRP the “shrunken log2 fold change” value was -0.00177. RRIRSRPPRLPRPRPRPKKAPRP was tested, and the “shrunken log2 fold change” value was 0.0943. With RRIRCRPPRLPRPRPRPERYPRP the “shrunken log2 fold change” value was -0.153. In the case of RRIRLRPPRLPRPRPRPDKRPRP, the “shrunken log2 fold change” value is reported as -0.175. For RRIRWRPPRLPRPRPRPMQGPRP, the “shrunken log2 fold change” value was 0.00185. RRIRPRPPRLPRPRPRPEFDPRP was tested, and the “shrunken log2 fold change” value was 0.33.
